{"source": "patent US20060026702A1", "about": "“Phosphoinositide 3-kinase mediated inhibition of GPCRs” (DUKE UNIVERSITY, priority 2002, published 2006)", "molecules": {"B1": {"name": "PI3KΔHEAT: HA tagged PI3K mutant with a deletion of the HEAT domain (protein)", "chain": "MELENYKQPVVLREDNCRRRRRMKPRSAASLSSMELIPIEFVLPTSQRKCKSPETALLHVAGHGNVEQMKAQVWLRALETSVAADFYHRLGPHHFLLLYQKKGQWYEIYDKYQVVQTLDCLRYWKATHRSPGQIHLVQRHPPSEESQAFQRQLTALIGYDVTDVSNVHDDELEFTRRGLVTPRMAEVASRDPKLYAMHPWVTSKPLPEYLWKKIANNCIFIVIHRSTTSQTIKVSPDDTPGAILQSFFTKMAKKKSLMDIPESQSEQDFVLRVCGRDEYLVGETPIKNFQWVRHCLKNGEEIHVVLDTPPDPALDEVRKEEWPLVDDCTGVTGYHEQLTIHGKDHESVFTVSLWDCDRKFRVKIRGIDIPVLPRNTDLTVFVEANIQHGQQVLCQRRTSPKPFTEEVLWNVWLEFSIKIKDLPKGALLNLQIYCGKAPALSSKASAESPSSESKGKVRLLYYVNLLLIDHRFLLRRGEYVLHMWQISGKGEDQGSFNADKLTSATNPDKENSMSISILLDNYCHPIALPKHQPTPDPEGDRGTAMLHDFTQQVQVIEMLQKVTLDIKSLSAEKYDVSSQVISQLKQKLENLQNSQLPESFRVPYDPGLKAGALAIEKCKVMASKKKPLWLEFKCADPTALSNETIGIIFKHGDDLRQDMLILQILRIMESIWETESLDLCLLPYGCISTGDKIGMIEIVKDATTIAKIQQSTVGNTGAFKDEVLNHWLKEKSPTEEKFQAAVERFVYSCAGYCVATFVLGIGDRHNDNIMITETGNLFHIDFGHILGNYKSFLGINKERVPFVLTPDFLFVMGTSGKKTSPHFQKFQDICVKAYLALRHHTNLLIILFSMMLMTGMPQLTSKEDIEYIRDALTVGKNEEDAKKYFLDQIEVCRDKGWTVQFNWFLHLVLGIKQGEKHSAYPYDVPDYA"}, "B2": {"name": "βARKct: carboxyl terminus of βARK1 that attenuates the Gβγ dependent signaling (protein)", "chain": "GIKLLDSDQELYRNFPLTISERWQQEVAETVFDTINAETDRLEARKKTKNKQLGHEEDYALGKDCIMHGYMSKMGNPFLTQWQRRYFYLFPNRLEWRGEGEAPQSLLTMEEIQSVEETQIKERKCLLLKIRGGKQFVLQCDSDPELVQWKKELRDAYREAQQLVQRVPKMKNKPRSPVVELSKVPLIQRGSANGL"}}, "key": {"βARK1": {"molecular_target": "T1, βARK1 (Bos taurus, UniProt P21146)", "T1 construct": "gift from Dr. Robert Lefkowitz", "T1 sequence (P21146 1-689)": "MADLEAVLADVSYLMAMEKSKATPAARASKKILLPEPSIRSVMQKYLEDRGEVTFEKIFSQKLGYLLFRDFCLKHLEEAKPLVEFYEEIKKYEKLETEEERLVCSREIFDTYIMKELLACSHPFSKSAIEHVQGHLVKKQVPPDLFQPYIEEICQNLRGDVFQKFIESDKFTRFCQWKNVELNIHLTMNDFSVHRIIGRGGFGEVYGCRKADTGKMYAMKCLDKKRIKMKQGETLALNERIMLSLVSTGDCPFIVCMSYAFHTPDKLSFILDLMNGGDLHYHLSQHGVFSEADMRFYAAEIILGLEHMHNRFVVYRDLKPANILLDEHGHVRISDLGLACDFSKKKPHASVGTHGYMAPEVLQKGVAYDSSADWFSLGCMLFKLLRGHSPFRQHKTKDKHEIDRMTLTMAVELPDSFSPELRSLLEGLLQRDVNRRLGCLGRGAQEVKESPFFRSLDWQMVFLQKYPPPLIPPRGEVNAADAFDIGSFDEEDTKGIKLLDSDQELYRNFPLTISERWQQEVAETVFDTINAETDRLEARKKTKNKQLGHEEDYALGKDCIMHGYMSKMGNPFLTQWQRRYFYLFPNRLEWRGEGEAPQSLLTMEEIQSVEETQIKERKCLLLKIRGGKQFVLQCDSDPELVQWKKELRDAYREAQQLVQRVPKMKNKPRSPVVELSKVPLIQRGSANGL", "assay": "Co-immunoprecipitation and GST pull-down with purified βARK1", "format": "binding", "conditions": "immunoprecipitated FLAG-HEAT or PI3KΔHEAT-HA", "experimental": "GST Fusion Protein Expression and Pull-down Experiments—Plasmid DNAs were transformed in Escherichia coli BL21 cells. Overnight cultures were grown in LB medium supplemented with ampicillin (100 μg/ml), diluted to an A600 of 0.2 in the same medium and grown for another 1 hr at 37° C. Cultured cells were then induced with 0.1 mM isopropyl-1-thio-β-D-galactopyranoside for 2 hr. Cell were then pelleted, washed once with 1× phosphate-buffered saline and resuspended in 1× phosphate-buffered saline containing 1 mM phenylmethylsulfonyl fluoride, 2 mg/ml lysozyme and incubated for 15 min on ice. Cells were lysed by adding Triton X-100 1%. Solublized cells were incubated with DNase (300 units) for 15 min on ice and centrifuged at 13,000 rpm for 10 min.\nGlutathione-Sepharose beads were added to the supernatant and gently agitated at 4° C. for 2 hr. Beads were washed three times with ice cold 1×PBS containing 1% Triton X-100 followed by three washes with cold PBS without detergent. Protein concentration was determined using a DC protein assay kit (Bio Rad), and the integrity of the fusion protein was analyzed by SDS-polyacrylamide gel electrophoresis and Coomassie staining.\nThe beads were spun and washed three times with binding buffer followed by three washes with binding buffer without detergent. The beads were resuspended in SDS gel loading buffer and resolved by gel electrophoresis, immunblotting and detection was carried out described later.\nFLAG-HEAT and PI3KΔHEAT proteins were immunoprecipitated from cell extracts using monoclonal FLAG and HA antibodies respectively, fractionated by SDS-PAGE and analyzed by immunoblotting with βARK1 monoclonal antibody. […] Levels of expression of HEAT and PI3KΔHEAT proteins were similar (FIG. 8B, lower panel).\nTo investigate whether there was a direct physical interaction between the HEAT domain of PI3K and βARK1, GST-HEAT fusion protein containing 535-732 amino acid residues of PI3Kγ was produced, which including the entire HEAT domain and flanking upstream 10 amino acids and downstream 7 amino acids. […]"}, "βARK1/PI3K interaction": {"molecular_target": "T2, βARK1/PI3K interaction (Bos taurus, UniProt P21146)", "T2 construct": "recognizes both full length βARK1 and the βARKct; expressed in transfected cells; host or cells: HEK 293", "T2 sequence (P21146 1-689)": "T1 sequence (P21146 1-689)", "assay": "βARK1 associated PI3K activity in HEK 293 cells co-transfected with HEAT or PI3KΔHEAT", "format": "cell-based", "conditions": "4 μg cDNA co-transfected with βARK1", "experimental": "The present inventors determined that overexpression of the 197 amino acid HEAT domain of PI3K competed for endogenous PI3K binding to βARK1 in living cells. HEK 293 cells were co-transfected with plasmids containing the βARK1 cDNA (2 μg) and increasing concentrations of the HEAT domain cDNA (ranging from 0 to 6 μg). […] The maximal reduction of βARK1 associated PI3K activity occurred when cells were co-transfected with 4 μg of HEAT cDNA (FIG. 9B). Summary results of n=5 experiments. *, p<0.0005. The data was normalized to βARK1 associated PI3K activity in cells transfected with βARK1 only. Furthermore, FLAG tagged HEAT protein co-immunoprecipitated with βARK1 monoclonal antibodies in the co-transfected HEK 293 cells.\nThe absence of the HEAT domain in an otherwise intact PI3K molecule affected the association of βARK1 with endogenous PI3K in cells. HEK 293 cells were co-transfected with plasmids containing cDNAs for βARK1 (2 μg), βARK1 plus HEAT (4 μg), and βARK1 plus PI3KΔHEAT (4 μg). Cell lysates were immunoprecipitated with a βARK1 monoclonal antibody and assayed for the associated PI3K activity. Expression of PI3KΔHEAT had no effect on the endogenous βARK1/PI3K interaction, whereas overexpression of HEAT abolished this interaction (FIGS. 9C and 9D). […] The data was normalized to βARK1 associated PI3K activity in cells transfected with βARK1 only.\nCytosolic and membrane fractions were prepared and analyzed for βARK1 associated PI3K activity. […] Membrane fractions were prepared from the HEK293 cells co-transfected with the βARK1 (2 μg), βARK1 and HEAT domain (4 μg) containing plasmids."}, "[1]": {"assay": "Catalytic (lipid kinase) activity of PI3K mutant", "format": "biochemical", "conditions": "compared with wild type PI3K", "source_text": "PI3KΔHEAT was constructed using 2 PCR reactions that selectively amplified regions of PI3K upstream and downstream from the HEAT domain (FIG. 8a). The region of PI3K upstream from HEAT was amplified using the forward primer (5′-[…]-3′) containing a BamHI site and Kozak consensus sequence, and the reverse primer (5′-[…]-3′) containing a SacI site. The region of PI3K downstream of the HEAT domain was amplified using the forward primer (5′-[…]-3′) containing a SacI site and the reverse primer (5′-[…]-3′) containing a BamHI site and a consensus stop codon. The upstream and downstream regions of PI3K were separately subcloned in the zero-blunt TOPO vector and sequence was verified by dideoxy sequencing. Following digestion with the restriction enzymes BamHI/SacI, a three fragment ligation was carried with the mammalian expression vector pRK5, to generate the plasmid containing the PI3KΔHEAT cDNA (FIG. 8a). […] The plasmids containing cDNAs encoding βARK1, FLAG-β2AR, HA-β2AR and p110γ have been described previously."}, "PI3K [2]": {"molecular_target": "T3, PI3K (Homo sapiens, UniProt P48736)", "T3 construct": "expressed in transfected cells; host or cells: NIH-3T3", "T3 sequence (P48736 with tags, fused parts or gaps DEL30-30/Q459R)": "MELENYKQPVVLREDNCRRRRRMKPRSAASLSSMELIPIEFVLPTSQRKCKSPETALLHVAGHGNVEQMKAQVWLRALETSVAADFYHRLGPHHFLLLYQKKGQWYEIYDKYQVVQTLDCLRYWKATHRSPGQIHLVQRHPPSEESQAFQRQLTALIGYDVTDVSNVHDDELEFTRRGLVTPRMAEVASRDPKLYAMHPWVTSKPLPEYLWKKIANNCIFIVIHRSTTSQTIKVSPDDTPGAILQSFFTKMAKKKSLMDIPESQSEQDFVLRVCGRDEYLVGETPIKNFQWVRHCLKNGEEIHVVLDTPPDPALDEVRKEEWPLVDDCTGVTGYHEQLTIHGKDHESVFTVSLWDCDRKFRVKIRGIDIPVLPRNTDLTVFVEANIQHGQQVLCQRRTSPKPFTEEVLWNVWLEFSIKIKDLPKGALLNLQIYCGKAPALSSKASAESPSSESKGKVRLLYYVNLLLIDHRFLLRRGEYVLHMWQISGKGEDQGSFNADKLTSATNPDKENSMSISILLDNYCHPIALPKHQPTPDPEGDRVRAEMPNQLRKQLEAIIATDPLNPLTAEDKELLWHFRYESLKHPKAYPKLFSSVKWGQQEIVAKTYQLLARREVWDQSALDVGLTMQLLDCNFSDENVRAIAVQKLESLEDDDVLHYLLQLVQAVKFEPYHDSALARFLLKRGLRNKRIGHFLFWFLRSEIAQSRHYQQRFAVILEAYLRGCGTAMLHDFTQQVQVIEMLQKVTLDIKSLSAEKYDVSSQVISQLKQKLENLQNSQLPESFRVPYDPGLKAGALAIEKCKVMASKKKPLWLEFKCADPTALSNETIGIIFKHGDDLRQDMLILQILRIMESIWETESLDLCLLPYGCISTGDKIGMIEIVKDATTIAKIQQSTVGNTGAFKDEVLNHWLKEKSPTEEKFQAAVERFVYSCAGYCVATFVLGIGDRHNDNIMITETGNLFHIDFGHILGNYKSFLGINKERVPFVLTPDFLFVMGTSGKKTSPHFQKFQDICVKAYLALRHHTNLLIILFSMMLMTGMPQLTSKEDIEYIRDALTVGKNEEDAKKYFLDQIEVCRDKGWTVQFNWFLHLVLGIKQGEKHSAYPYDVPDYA", "assay": "βARK1 associated PI3K activity (lipid kinase assay) in transfected NIH-3T3 cells", "format": "cell-based, Mouse", "conditions": "co-transfected βARKct cDNA; isoproterenol 2 min", "method": "(§1) Cell Culture—Mouse NIH-3T3 and HEK293 cells were maintained in either Iscoves modified Dulbecco's medium or minimal essential medium (MEM) supplemented with 10% fetal bovine serum and 1:100 penicillin-streptomycin (10,000 U/ml) at 37° C. Cells were seeded at a density of ˜1-3×10^5 cells/35 mm^2 dish and at 70-80% confluence were transiently transfected using the transfection reagent FUGENE6 (ROCHE) or calcium phosphate precipitation. Cells were harvested 24 hours after transfection, re-plated in triplicate, allowed to grow overnight and serum starved for 2-4 hours before agonist stimulation.\n(§2) Cytosolic and Membrane Fractionation—Cell monolayers were scraped in 1 ml of buffer containing 25 mM Tris-HCl (pH 7.5), 5 mM EDTA, 5 mM EGTA, 1 mM phenylmethylsulfonyl fluoride, 2 μg/ml each of leupeptin and aprotinin and disrupted further by using Dounce homogenizer. Intact cells and nuclei were removed by-centrifugation at 1,000×g for 5 min. The collected supernatant was further subject to a centrifugation at 38,000×g for 25 min. The pellet was resuspended in lysis buffer (1% Nonidet P-40, 10% glycerol, 137 mM NaCl, 20 mM Tris-Cl (ph 7.4), 1 mM phenylmethylsulfonyl fluoride, 20 mM NaF, 1 mM sodium pyrophosphate, 1 mM sodium orthovanadate and 2 μg/ml each of aprotinin and leupeptin) and used as membrane fraction and the supernatant was diluted in lysis buffer and used as the cytosolic fraction.\n(§3) Lipid Kinase Assays—Cells were lysed in lysis buffer and 2 mg cytosolic extract was used for immunoprecipitation with either the C5/1 monoclonal antibody directed against βARK1, the anti-FLAG M2 monoclonal antibody (Sigma) or antibodies to p110γ, or p110β (Santa Cruz Biotechnology) and protein G-agarose. Sedimented beads were then washed once with 1 ml of lysis buffer, thrice with 1 ml of phosphate-buffered saline (1× phosphate-buffered saline, 1% NP-40 and 100 μM sodium orthovanadate), thrice with 1 ml of Tris/LiCl (100 mM Tris-HCl (pH 7.4), 5 mM LiCl and 100 μM sodium orthovanadate) and twice with TNE (10 mM Tris Cl (pH 7.4), 150 mM NaCl, 5 mM EDTA and 100 μM sodium orthovanadate). Samples were then resuspended in 50 ml of TNE and 10 μl of 100 mM MgCl2 was added to each sample. The substrate, phosphatidylinositol (PI, Avanti), was prepared by drying 50 μl of the 10 mg/ml stock (PI in chloroform) in an eppendorf tube with a stream of air and adding 250 μl of TE (10 mM Tris Cl (pH 7.4) and 1 mM EDTA). The PI was then suspended by sonication in an ice bath for 3 minutes. 10 p, of the PI solution and 11 μl of ATP solution (440 μM cold ATP and 1 μCi/μl of [γ-32P]ATP) were added to each sample. […] Autoradiography of dried plates was used to detect signals, and PIP was quantified by phosphorimaging. […] Values are expressed as fold increase/decrease relative to wild-type/control."}, "PI3K [3]": {"molecular_target": "T4, PI3K (Homo sapiens, UniProt P48736, DEL30-30/Q459R)", "T4 construct": "expressed in transfected cells; host or cells: NIH-3T3", "T4 sequence (P48736 with tags, fused parts or gaps DEL30-30/Q459R)": "as above", "assay": "βARK1 associated PI3K activity (lipid kinase assay) in transfected NIH-3T3 cells", "format": "cell-based, Mouse", "conditions": "co-transfected βARKct cDNA", "method": "as §1, §2, §3"}}}
{"molecule": "B1", "values": [{"measurement": "association with purified βARK1 (immune complexes from HEK 293 extracts)", "setting": "βARK1", "value": "not"}, {"measurement": "endogenous βARK1/PI3K interaction", "setting": "βARK1/PI3K interaction", "value": "no effect"}, {"measurement": "catalytic activity", "setting": "[1]", "value": "indistinguishable from wild type PI3K"}]}
{"molecule": "B2", "values": [{"measurement": "agonist-dependent translocation of βARK1 associated PI3K activity to the membrane", "setting": "PI3K [2]", "value": "abolished"}, {"measurement": "βARK1 associated PI3K activity in the cytosolic fraction", "setting": "PI3K [3]", "value": "loss"}]}
